Reference: article PMC4537775 (Cell, 2015)
Residue numbers refer to the chain shown, from its start. In names and notes the source's numbering stands. Where two headings read alike, the source gives them in different places.

B1: full-length IstB (AAA+ ATPase subunit of the Geobacillus stearothermophilus IS21 family member IS5376) (natural protein, UniProt Q45619 1-251, looked up)
chain: MKERIHEYCHRLHLPVMAERWSAMAEYASTHNISYSEFLFRLLEAEIVEKQARSIQTLIKLSKLPYRKTIDTFDFTAQPSVDERRIRELLTLSFIDRKENILFLGPPGIGKTHLAISIGMEAIARGYKTYFITAHDLVNQLRRADQEGKLEKKLRVFVKPTVLIIDEMGYLKLDPNSAHYLFQVIARRYEHAPIILTSNKSFGEWGEIVGDSVLATAMLDRLLHHSIIFNLKGESYRLREKRLQEEKQKDQ
B2: full-length IstB arginine finger mutant R221A (natural protein, Geobacillus stearothermophilus, UniProt Q45619 1-251, looked up)
chain: B1 chain with R221A
B3: full-length IstB Walker-B mutant E167Q (natural protein, Geobacillus stearothermophilus, UniProt Q45619 1-251, looked up)
chain: B1 chain with E167Q
B4: full-length IstB sensor-II mutant R237A (natural protein, Geobacillus stearothermophilus, UniProt Q45619 1-251, looked up)
chain: B1 chain with R237A
B5: full-length IstB Walker-A mutant K111A (natural protein, Geobacillus stearothermophilus, UniProt Q45619 1-251, looked up)
chain: B1 chain with K111A

Tests used:
SEC [1] = target: the molecule itself; experiment: SEC
SEC [2] = target: the molecule itself; experiment: SEC; remark: listed apart in the source

Protein | stoichiometry N (SEC [1]) | stoichiometry N (SEC [2])
B1 | 2 | –
B2 | – | 2
B3 | – | 2
B4 | – | 2
B5 | – | 2
